# According to patent US20210292393A1 (published 2021):
# Positions count from the first letter of the chain named.
# B1: antibody 456 (antibody, V domains shown)
# VH: QVQLQQWGAGLLKPSETLSLTCAVYGGSFSGYYWSWIRQPPGKGLEWIGEINHSGSTNYNPSLKSRVTISVDTSKNQFSLKLSSVTAADTAVYYCARDGSGSYYLSYYFDYWGQGTLVTVSS
# VL: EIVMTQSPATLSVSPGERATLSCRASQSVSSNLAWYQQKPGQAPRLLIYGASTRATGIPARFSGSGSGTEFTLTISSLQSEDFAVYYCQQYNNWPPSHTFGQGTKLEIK
# B2: antibody 476 (antibody, V domains shown)
# VH: QVQLVQSGSELKKPGASVKVSCKASGYTFTSYAMNWVRQAPGQGLEWMGWINTNTGNPTYAQGFTGRFVFSLDTSVSTAYLQISSLKAEDTGVYYCARDHELPNSSSWFGHFEYWGQGTLVTVSS
# VL: SYELTQPPSVSVSPGQTARITCSGDALPKQYAYWYQQKAGQAPVLVIYKDSERRSGIPERFSGSSSGTTVTLTISGVQAEDEADYYCQSADSSGTSVVFGGGTKLTVL
# B3: antibody 477 (antibody, V domains shown)
# VH: QVQLVESGGGVVQPGRSLRLSCAASGITFSSYAMHWVRQAPGKGLEWVAVISYDGSDKYHADSVKGRFAISRDNSKNTLYLQMNSLRAEDTAVYYCAKDKGIAVAGTGWIRPDPEYYFDYWGQGTLVTVSS
# VL: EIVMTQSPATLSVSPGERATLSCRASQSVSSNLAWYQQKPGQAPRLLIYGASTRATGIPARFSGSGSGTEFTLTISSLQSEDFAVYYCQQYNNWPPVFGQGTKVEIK
# B4: antibody 439 (antibody, V domains shown)
# VH: QVQLVESGGGVVQPGRSLRLSCAASGFTFSSYAMHWVRQAPGKGLEWVAVISYDGSNKYYADSVKGRFTISRDNSKNTLYLQMNSLRAEDTAVYYCARPPRGGSYYPFDPWGQGTLVTVSS
# VL: not shown
# B5: antibody 446 (antibody, V domains shown)
# VH: B4 VH with P100N, R101S, G103S, S104Y, Y105F, Y106G, P107Y, D109Q, P110H
# VL: QSVLTQPPSVSGAPGQRVTISCTGSSSNIGAGYDVHWYQQLPGTAPKLLIYGNSNRPSGVPDRFSGSKSGTSASLAITGLQAEDEADYYCQSYDSSLSGFYVFGTGTKVTVL
# B6: antibody 475 (antibody, V domains shown)
# VH: QVQLVESGGGVVQPGRSLRLSCAASGFTFSSYAMHWVRQAPGKGLEWVTFISHEGSNKYYADSVKGRFTISRDNSKNTLYLQMNSLRAEDTAVYYCARTFEYSSSSATGDFDYWGQGTLVTVSS
# VL: QSVLTQPPSVSGAPGQRVTISCTGSSSNIGAGYDVHWYQQLPGTAPKLLIYGNSNRPSGVPDRFSGSKSGTSASLAITGLQAEDEADYYCQSYDSSLSGVVFGGGTKLTVL
# B7: antibody 454 (antibody, V domains shown)
# VH: QVQLVQSGAEVKKPGASLKVSCKASGYIFTGYYMHWVRQAPGQGLEWMGWISPNSGGTKYAQKFQGRVTMTRDTSISTAYMELSRLRSDDSAVYYCAREPYYDILTGYYTPRRYLDYWGQGTLVTVSS
# VL: QSALTQPASVSGSPGQSITISCTGTSSDVGDYNYVSWYQQHPGKVPKLMIYDVSHRPSGVTNRFSGSKSGNTASLTISGLRAEDEADYYCSSYTSSSTYVFGTGTKVTVL
# B8: antibody 470 (antibody, V domains shown)
# VH: not shown
# VL: QSALTQPASVSGSPGQSITISCTGTSSDVGSYNLVSWYQQHPGKAPKLMIYEVSKRPSGVSNRFSGSKSGNTASLTISGLQAEDEADYYCCSYAGSSTLVFGGGTKLTVL
# B9: anti-SARS-CoV-2 antibody 1081 (antibody, V domains shown)
# VH: EVQLVQSGAEVKKPGESLKISCKRSGYSFTTYWIGWVRQMPGKGLEWMGSIYPGDSDTRYSPSFQGQVTISADKSISTAYLQWSSLKASDTAMYYCASQEVPGYYYYMDVWGKGTTVTVSS
# VL: DIQMTQSPSSLSASVGDRVTITCRASQSISSYLHWYQQKPGKAPKLLIYAASSLQSGVPSRFSGSGSGTDFTLTISSLQPEDFATYYCQQTYSTHTWTFGQGTKVEIK
# B10: anti-SARS-CoV-2 antibody 1037 (antibody, V domains shown)
# VH: QITLKESGPTLVKPTQTLTLTCTFSGFSLSTSGVGVGWIRQPPGKALEWLALIYWDDDKRYSPSLKSRLTITKDTSKNQVVLTMTNMDPVDTATYYCAHHTITRINDYWGQGTLVTVSS
# VL: QSALTQPASVSGSPGQSITISCTATSSDVGAYNYVSWYQQHPGKAPKLMIYDVSKRPSGVSNRFSGSKSGNTASLTISGLQAEDEADYYCSSYTSSSTVFGGGTKLTVL
# B11: anti-SARS-CoV-2 antibody 1075 (antibody, V domains shown)
# VH: QVQLVQSGAEVKKPGASVKVSCKVSGYTLIELSMHWVRQAPGKGLEWMGGFDPEDGETIYAQKFQGRVTMTEDTSTDTAYMELSSLRSEDTAVYYCATEWAYYGSGSYLGYWGQGTLVTVSS
# VL: EIVMTQSPATLSVSPGERATLSCRASQSVSSNLAWFQQKPGQAPRLLIYGASTRVTVIPARFSGSGSGTEFTLTISSLQSEDFAVYYCQQYNNWPRTFGQGTKVEIK
# B12: anti-SARS-CoV-2 antibody 1091 (antibody, V domains shown)
# VH: EVQLVESGGGLVKPGGSLRLSCAASGFPFITYSMNWVRQAPGKGLEWVSSISRNSDYIYYADSVRGRVTISRDNAENSLYLQMHSLRAEDTAVYYCARDVVRSGNYYIPRHGMDVWGRGTTVTVSS
# VL: QSVLTQPPSASGTPGQRVTISCSGTSSNIGSNTVNWYQQLPETAPKLLIYGTDQRPSGVPDRFSGSKSGTSASLAISRLQSEDEADYYCATRDDSLSGPVFGGGTQLTVL
# B13: anti-SARS-CoV-2 antibody 1027 (antibody, V domains shown)
# VH: EVQLVESGGGLVQPGGSLRLSCAASGFTVSSNYMSWVRQAPGKGLEWVSIIYSGGSTFYADSVKGRFTISRDSSKNTLYLQMSSLRAEDTAVYYCARDLDYYGMDVWGQGTTVTVSS
# VL: DIQLTQSPSFLSAPVGDRVTITCRASQGISSYLAWYQQKPGKAPKLLIYGASTLQSGVPSRFSGSGSGTEFTLTISSLQPEDFATYYCQQLNSYQRFTFGPGTKVEIK
# B14: anti-SARS-CoV-2 antibody 1015 (antibody, V domains shown)
# VH: EVQLVESGGGLVQPGGSLRLSCAASGFTFSSYWMHWVRQAPGKGLVWVSHINSDGSSTSYADSVKGRFTISRDNAKNTLYLQMNSLRAEDTAVYYCARGLRYFDLDVWGQGTTVTVSS
# VL: QSVLTQPPSVSEAPRQRVTISCSGSSSNIGNNAVNWYQQLPGKAPKLLIFYDDLLPSGVSDRFSGSKSGTSASLAISGLQSEDEADYYCAAWDDSLNGGVFGGGTKLTVL
# B15: anti-SARS-CoV-2 antibody 1193 (antibody, V domains shown)
# VH: EVQLVESGGGLVQPGGSLRLSCAASGFTFSSYYMNWVRQAPGKGLEWVSYISSGSSIIYYADSVKGRFTISRDNAKNSLYLQMNSLRDEDTAVYYCARDSPLRYFDWQLGGGFDYWGQGTLVTVSS
# VL: B7 VL with D31G, V45A, H55N, T61S, R81Q, T98L, Y99W, T103G, V107L
# Biological target: SARS-CoV-2 full length spike protein (wild type), expressed on the surface of transiently transfected CHO … (SARS-CoV-2, UniProt P0DTC2 14-1273)
# Assay: not given
row,Binder,"median fluorescence intensity, fold over isotype control [fold over isotype]"
1,B1,9.25
2,B2,18.2
3,B3,30.7
4,B4,8.2
5,B5,7.99
6,B6,32.2
7,B7,29.6
8,B8,20.7

# Biological target: SARS-CoV-2 spike protein (wild type), spike protein trimer (SARS-CoV-2, UniProt P0DTC2 14-1208)
# Assay: not given
row,Binder,Kd [pM]
1,B9,93
2,B10,126
3,B11,93
4,B12,54
5,B13,205
6,B14,96
7,B15,178

# Biological target: SARS-CoV-2 full-length spike protein on pseudotyped lentivirus (SARS-CoV-2, UniProt P0DTC2 14-1273)
# Assay: cell-based or functional assay
row,Binder,Pseudo-neutralization IC50 [µg/mL]
1,B9,0.012
2,B10,0.025
3,B11,0.039
4,B12,0.016
5,B13,0.01
6,B14,0.011
7,B15,0.69

# Biological target: spike protein of SARS-CoV-2 clinical isolate USA/WA/1/2020 (live virus) (SARS-CoV-2, UniProt P0DTC2 14-1273)
# Assay: cell-based or functional assay
row,Binder,Live Virus Neutralization IC50 [µg/mL]
1,B9,4.6
2,B10,0.009
3,B11,0.011
4,B12,0.074
5,B13,0.005
6,B14,0.032
7,B15,0.31
